# Assay results published in paper PMC4300268.
# Biological target: Plu4264 from Photorhabdus luminescens subsp. laumondii TTO1 (Photorhabdus luminescens subsp. laumondii TTO1)
# Test: crystal structure
substance,measurement,value
Plu4264 from Photorhabdus luminescens subsp. laumondii TTO1 (natural protein),stoichiometry N,2
